± gives the standard deviation of the averaged measurements.
B1: library; numbered along this chain (parent)
chain: MNIQIGELAKRTACPVVTIRFYEQEGLLPPPGRSRGNFRLYGEEHVERLQFIRHCRSLDMPLSDVRTLLSYRKRPDQDCGEVNMLLDEHIRQVESRIGALLELKHHLVELREACSGARPAQSCGILQGLSDCVCDTRGTTAHPSD

Assays:
[1] = variants of: B1; assay: sfGFP reporter fluorescence (15 h) (µM FITC); higher = higher leak; conditions: library round: Round 0; ligand: none
Procedure, shortened: (§1)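 Linear PbrR templates were made by PCR, normalized to 5 nM with an Echo, and expressed in BL21 Star (DE3) PANOx-SP extract with the pPbrR-sfGFP reporter plasmid and 30 μg/mL GamS. Echo-assembled 1 μL reactions held 1 µM lead chloride, 30 µM zinc acetate or no metal and were incubated 15 hr at 30 °C. Endpoint sfGFP fluorescence was read on a Synergy Neo2 and expressed as µM FITC using standard curves. Up to three biological replicates were run.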

[2] = variants of: B1; assay: sfGFP reporter fluorescence (15 h) (µM FITC); higher = stronger transcriptional activation; conditions: library round: Round 0
Procedure, shortened: as §1

Q: What does the source list for MNIQIGELAKRTACPVVTIRFYEQEGLLPPPGRSRGNFRLYGEEHVERLQFIRHCRSLDMPLSDVRTLLSYRKRPDQDCGEVNMLLDEHIRQVESRIGALLELKHHLVELREACSGARPAQSCGILQPLSDCVCDTRGTTAHPSD [G128P]?
A: sfGFP reporter fluorescence [1]: 0.05498 ± 0.00052; sfGFP reporter fluorescence ([2]; ligand: 1 µM Pb): 0.0568 ± 0.001; sfGFP reporter fluorescence ([2]; ligand: 30 µM Zn): 0.0535 ± 0.001

Q: What does the source list for MNIQIGELAKRTACPVVTIRFYEQEGLLPPPGRSRGNFRLYGEEHVERLQFIRHCRSLDMPLSDVRTLLSYRKRPDQDCGEVNMLLDEHIRQVESRIGALLELKHHLVELREACSGARPAQSCGILQVLSDCVCDTRGTTAHPSD [G128V]?
A: sfGFP reporter fluorescence [1]: 0.0647 ± 0.00078; sfGFP reporter fluorescence ([2]; ligand: 1 µM Pb): 0.131 ± 0.011; sfGFP reporter fluorescence ([2]; ligand: 30 µM Zn): 1.54 ± 0.16

Q: With MNIQIGELAKRTACPVVTIRFYEQEGLLPPPGRSRGNFRLYGEEHVERLQFIRHCRSLDMPLSDVRTLLSYRKRPDQDCGEVNMLLDEHIRQVESRIGALLELKHHLVELREACSGARPAQSCGILQWLSDCVCDTRGTTAHPSD [G128W] as the variant, how does the sfGFP reporter fluorescence [1] read?
A: 0.07165 ± 0.00026

Q: What about the sfGFP reporter fluorescence ([2]; ligand: 1 µM Pb) of the same variant?
A: 0.248 ± 0.028

Q: What about the sfGFP reporter fluorescence ([2]; ligand: 30 µM Zn) of the same variant?
A: 1.39 ± 0.098

Q: For MNIQIGELAKRTACPVVTIRFYEQEGLLPPPGRSRGNFRLYGEEHVERLQFIRHCRSLDMPLSDVRTLLSYRKRPDQDCGEVNMLLDEHIRQVESRIGALLELKHHLVELREACSGARPAQSCGILQLLSDCVCDTRGTTAHPSD [G128L], which sfGFP reporter fluorescence [1] is on record?
A: 0.0715 ± 0.0031

Q: What about the sfGFP reporter fluorescence ([2]; ligand: 1 µM Pb) of the same variant?
A: 0.203 ± 0.03

Q: And the sfGFP reporter fluorescence ([2]; ligand: 30 µM Zn)?
A: 2.04 ± 0.21

Q: With MNIQIGELAKRTACPVVTIRFYEQEGLLPPPGRSRGNFRLYGEEHVERLQFIRHCRSLDMPLSDVRTLLSYRKRPDQDCGEVNMLLDEHIRQVESRIGALLELKHHLVELREACSGARPAQSCGILQYLSDCVCDTRGTTAHPSD [G128Y] as the variant, how does the sfGFP reporter fluorescence [1] read?
A: 0.0755

Q: And the sfGFP reporter fluorescence ([2]; ligand: 1 µM Pb)?
A: 0.203 ± 0.018

Q: What about the sfGFP reporter fluorescence ([2]; ligand: 30 µM Zn) of the same variant?
A: 1.37 ± 0.067

Q: For MNIQIGELAKRTACPVVTIRFYEQEGLLPPPGRSRGNFRLYGEEHVERLQFIRHCRSLDMPLSDVRTLLSYRKRPDQDCGEVNMLLDEHIRQVESRIGALLELKHHLVELREACSGARPAQSCGILQQLSDCVCDTRGTTAHPSD [G128Q], which sfGFP reporter fluorescence [1] is on record?
A: 0.06982 ± 0.00026

Q: And the sfGFP reporter fluorescence ([2]; ligand: 1 µM Pb)?
A: 0.117 ± 0.0026

Q: What about the sfGFP reporter fluorescence ([2]; ligand: 30 µM Zn) of the same variant?
A: 2.05 ± 0.43

Q: Which results are given for MNIQIGELAKRTACPVVTIRFYEQEGLLPPPGRSRGNFRLYGEEHVERLQFIRHCRSLDMPLSDVRTLLSYRKRPDQDCGEVNMLLDEHIRQVESRIGALLELKHHLVELREACSGARPAQSCGILQNLSDCVCDTRGTTAHPSD [G128N]?
A: sfGFP reporter fluorescence [1]: 0.0614 ± 0.0023; sfGFP reporter fluorescence ([2]; ligand: 1 µM Pb): 0.0704 ± 0.0042; sfGFP reporter fluorescence ([2]; ligand: 30 µM Zn): 0.875 ± 0.093

Q: Which sfGFP reporter fluorescence [1] does the source give for MNIQIGELAKRTACPVVTIRFYEQEGLLPPPGRSRGNFRLYGEEHVERLQFIRHCRSLDMPLSDVRTLLSYRKRPDQDCGEVNMLLDEHIRQVESRIGALLELKHHLVELREACSGARPAQSCGILQRLSDCVCDTRGTTAHPSD [G128R] here?
A: 0.161 ± 0.007

Q: And the sfGFP reporter fluorescence ([2]; ligand: 1 µM Pb)?
A: 0.316 ± 0.038

Q: What about the sfGFP reporter fluorescence ([2]; ligand: 30 µM Zn) of the same variant?
A: 3.05 ± 0.31

Q: Which results are given for MNIQIGELAKRTACPVVTIRFYEQEGLLPPPGRSRGNFRLYGEEHVERLQFIRHCRSLDMPLSDVRTLLSYRKRPDQDCGEVNMLLDEHIRQVESRIGALLELKHHLVELREACSGARPAQSCGILQSLSDCVCDTRGTTAHPSD [G128S]?
A: sfGFP reporter fluorescence [1]: 0.0649 ± 0.0036; sfGFP reporter fluorescence ([2]; ligand: 1 µM Pb): 0.0902 ± 0.0083; sfGFP reporter fluorescence ([2]; ligand: 30 µM Zn): 1.3 ± 0.14

Q: With MNIQIGELAKRTACPVVTIRFYEQEGLLPPPGRSRGNFRLYGEEHVERLQFIRHCRSLDMPLSDVRTLLSYRKRPDQDCGEVNMLLDEHIRQVESRIGALLELKHHLVELREACSGARPAQSCGILQTLSDCVCDTRGTTAHPSD [G128T] as the variant, how does the sfGFP reporter fluorescence [1] read?
A: 0.0647 ± 0.0018

Q: And the sfGFP reporter fluorescence ([2]; ligand: 1 µM Pb)?
A: 0.0885 ± 0.014

Q: And the sfGFP reporter fluorescence ([2]; ligand: 30 µM Zn)?
A: 1.21 ± 0.22

Q: For MNIQIGELAKRTACPVVTIRFYEQEGLLPPPGRSRGNFRLYGEEHVERLQFIRHCRSLDMPLSDVRTLLSYRKRPDQDCGEVNMLLDEHIRQVESRIGALLELKHHLVELREACSGARPAQSCGILQMLSDCVCDTRGTTAHPSD [G128M], which sfGFP reporter fluorescence [1] is on record?
A: 0.105 ± 0.0062

Q: What about the sfGFP reporter fluorescence ([2]; ligand: 1 µM Pb) of the same variant?
A: 0.311 ± 0.025

Q: And the sfGFP reporter fluorescence ([2]; ligand: 30 µM Zn)?
A: 3.04 ± 0.38

Q: For MNIQIGELAKRTACPVVTIRFYEQEGLLPPPGRSRGNFRLYGEEHVERLQFIRHCRSLDMPLSDVRTLLSYRKRPDQDCGEVNMLLDEHIRQVESRIGALLELKHHLVELREACSGARPAQSCGILQGDSDCVCDTRGTTAHPSD [L129D], which sfGFP reporter fluorescence [1] is on record?
A: 0.0588 ± 0.0013

Q: What about the sfGFP reporter fluorescence ([2]; ligand: 1 µM Pb) of the same variant?
A: 0.05992 ± 0.00026

Q: What about the sfGFP reporter fluorescence ([2]; ligand: 30 µM Zn) of the same variant?
A: 0.055 ± 0.001

Q: Which results are given for MNIQIGELAKRTACPVVTIRFYEQEGLLPPPGRSRGNFRLYGEEHVERLQFIRHCRSLDMPLSDVRTLLSYRKRPDQDCGEVNMLLDEHIRQVESRIGALLELKHHLVELREACSGARPAQSCGILQGCSDCVCDTRGTTAHPSD [L129C]?
A: sfGFP reporter fluorescence [1]: 0.0561 ± 0.0015; sfGFP reporter fluorescence ([2]; ligand: 1 µM Pb): 0.05791 ± 0.00052; sfGFP reporter fluorescence ([2]; ligand: 30 µM Zn): 0.05443 ± 0.00026

Q: For MNIQIGELAKRTACPVVTIRFYEQEGLLPPPGRSRGNFRLYGEEHVERLQFIRHCRSLDMPLSDVRTLLSYRKRPDQDCGEVNMLLDEHIRQVESRIGALLELKHHLVELREACSGARPAQSCGILQGASDCVCDTRGTTAHPSD [L129A], which sfGFP reporter fluorescence [1] is on record?
A: 0.0572 ± 0.0021

Q: And the sfGFP reporter fluorescence ([2]; ligand: 1 µM Pb)?
A: 0.0561 ± 0.001

Q: What about the sfGFP reporter fluorescence ([2]; ligand: 30 µM Zn) of the same variant?
A: 0.0574 ± 0.0018
